# Patent publication US20220251184A1 (Regeneron, published 2022)
# T1: Human BMP12/GDF7 (human, UniProt Q7Z4P5 322-450, limits assumed)
# T1 sequence (looked up): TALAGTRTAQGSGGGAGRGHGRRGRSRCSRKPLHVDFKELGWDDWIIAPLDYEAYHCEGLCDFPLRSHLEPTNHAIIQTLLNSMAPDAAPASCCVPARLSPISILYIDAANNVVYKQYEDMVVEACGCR
# T2: human BMP6 (R&D Systems, Cat #507-BP) (human, UniProt P22004 375-513, limits assumed)
# T2 construct: Bought protein (R&D Systems 507-BP or 507-BP/CF); also called hBMP6; hBMP-6
# T2 sequence: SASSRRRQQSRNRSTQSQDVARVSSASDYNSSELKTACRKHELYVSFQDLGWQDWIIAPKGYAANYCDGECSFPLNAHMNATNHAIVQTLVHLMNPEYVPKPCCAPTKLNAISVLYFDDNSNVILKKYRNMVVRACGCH
# T3: Human GDF3 (human, UniProt Q9NR23 251-364)
# T3 sequence (looked up): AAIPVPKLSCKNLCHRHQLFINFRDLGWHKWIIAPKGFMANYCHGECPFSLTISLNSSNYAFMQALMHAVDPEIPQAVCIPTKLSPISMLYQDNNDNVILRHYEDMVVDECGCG
# Columns and labels:
# Human BMP12/GDF7 = molecular target: T1, Human BMP12/GDF7; test: BLI (Octet HTX), mAb captured on Protein A sensor, 100 nM ligand, 25 C
# [1] = molecular target: T2, human BMP6 (R&D Systems, Cat #507-BP); test: competition ELISA, antibody titrated against 2.5 nM biot-hBMP6, plate-coated hHJV-hFc as competitor
# Protocol: Experiments were carried out using the following procedure. Receptors were coated in Hank's Balanced Salt Solution (HBSS) separately at a concentration of 5 μg/mL for hHJV-hFc and […] for hActR2a-hFc on a 96-well microtiter plate overnight at 4° C. […] In other microtiter plates, a constant amount of 2.5 nM of biot-BMP6 (for HJV capture) or 1.5 nM biot-BMP6 (for ActR2a capture) protein was titrated with anti-BMP6 antibodies or isotype control antibodies ranging from 5.1 pM to 300 nM in serial dilution in HBSS with 1.0% BSA and […] heparin. These antibody-protein complexes, after a one-hour incubation, were transferred to the microtiter plate coated with hHJV-hFc or hActR2a-hFc. After two hours of incubation at room temperature, the wells were washed, and plate-bound biot-BMP6 was detected with neutravidin conjugated with horseradish peroxidase (HRP) (Thermo Scientific, Cat #31030). The plates were then developed using TMB substrate solution (BD Biosciences, Cat #555214) according to manufacturer's recommendation and absorbance at 450 nm was measured on a Victor X5 plate reader.
# Data analysis was performed using a sigmoidal dose-response model within Prism™ software (GraphPad). […]
# Human GDF3 = molecular target: T3, Human GDF3; test: BLI (Octet HTX), mAb captured on Protein A sensor, 100 nM ligand, 25 C
Binder,binding response (Human BMP12/GDF7) [nm],IC50 [1] [nM],binding response (Human GDF3) [nm]
"H4H17871P (antibody, V domains shown, Fully human antibody; also called anti-BMP6 monoclonal antibody; BMP6 antibody of the invention) VH: EVQLVESGGGLVQPGGSLRLSCAASGFTFNNYAMSWVRQAPGKGLEWVSAISGSGDSTYYADSVKGRFTISRDNSKNTLYLQMNSLRAEDTAVYYCAKRSRSSPFDPWGQGTLVTVSS VL: not shown",0.01,1.61,
"H4H17855P (antibody, V domains shown, Fully human antibody; also called anti-BMP6 monoclonal antibody; BMP6 antibody of the invention) VH: EVQLVESGGGLVQPGGSLRLSCAASGFTFSSYAMSWVRQAPGKGLEWVSAISGSGGRTYYTDSVKGRFTMSRDNSKNTLYLQMNSLRAEDTAVYYCAKRPYNSPFDPWGQGTLVTVSS VL: EIVLTQSPGTLSLSPGEGATLSCRASQSVSSSYLAWYQQKPGQAPRLLIYGASSRATGIPDRFSGSGSGTDFTLTISRLEPEDFVVYYCQHFGGTPFTFGGGTKVEIK",,,0.03
